Experiments:
Assay in all cases: EMSA
[1] = test system: RsmA3 (Pseudomonas syringae pv. tomato DC3000)
[2] = test system: RsmA1 (Pseudomonas syringae pv. tomato DC3000)
[3] = test system: RsmA2 (Pseudomonas syringae pv. tomato DC3000)
[4] = test system: RsmA4 (Pseudomonas syringae pv. tomato DC3000)

Substance | binding signal [1] [nM] | binding signal [2] [nM] | binding signal [3] [nM] | binding signal [4] [nM]
rsmX1 | 40 | 320 | 40 | 640
rsmX5 | 40 | 320 | 40 | 640
rsmY | 40 | 320 | 40 | 640
rsmZ | 40 | 320 | 40 | 640

Source: PMC6715622
